Two substances from paper PMC11418285 can be followed below.

The target in assay [1] is FcγRIIIa (CD16a) 158F allele (human) (UniProt P08637).
For a further assay, the target named is FcγRI (CD64) (human) (UniProt P12314).
Chain of UniProt P12314 (P12314 16-374): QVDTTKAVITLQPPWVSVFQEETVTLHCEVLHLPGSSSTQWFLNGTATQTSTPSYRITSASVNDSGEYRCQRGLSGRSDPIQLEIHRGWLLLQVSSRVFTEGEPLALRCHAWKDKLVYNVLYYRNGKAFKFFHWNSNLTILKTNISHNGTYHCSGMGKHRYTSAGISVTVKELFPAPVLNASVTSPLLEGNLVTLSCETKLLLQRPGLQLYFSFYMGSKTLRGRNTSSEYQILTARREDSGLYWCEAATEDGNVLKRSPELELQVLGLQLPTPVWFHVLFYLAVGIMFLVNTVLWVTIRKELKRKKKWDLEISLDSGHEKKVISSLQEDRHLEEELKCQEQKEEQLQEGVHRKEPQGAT

Chain of UniProt P08637 (P08637 17-254): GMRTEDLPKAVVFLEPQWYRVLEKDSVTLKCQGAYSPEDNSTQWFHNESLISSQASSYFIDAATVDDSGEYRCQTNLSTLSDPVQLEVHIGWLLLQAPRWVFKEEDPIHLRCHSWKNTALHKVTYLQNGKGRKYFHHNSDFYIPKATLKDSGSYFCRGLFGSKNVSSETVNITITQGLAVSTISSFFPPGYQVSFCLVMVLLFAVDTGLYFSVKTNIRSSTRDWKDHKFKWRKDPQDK

Turning to “anti-CD20 antibody with rituximab V regions, afucosylated wild-type human IgG1”, the ADCC activity, Fc effector cell reporter bioassay, relative to wild-type IgG1 in assay [1] was 201 fold.

Substance “anti-CD20 antibody with rituximab V regions, human IgG1 S239D A330L I332E” displayed an ADCP activity, Fc effector cell reporter bioassay, relative to wild-type IgG1 in the assay with FcγRI (CD64) (human) of 1.87 fold.
